In paper PMC7261172, “Peptides containing the PCNA interacting motif APIM bind to the β-clamp and inhibit bacterial growth and mutagenesis” (Nucleic Acids Research, 2020) one finds Kd and response data, which are given here for two substances.

The target in test [1] is β-clamp (Escherichia coli) (UniProt P0A988). The settings on record: cited from earlier work.
Test [2] addresses E. coli β-clamp, wild type, His-tagged (UniProt P0A988). As to the kind of experiment: SPR. As to conditions: peak response at the end of the last (highest) peptide injection, about 1130 s; concentrations not given; parent: est. 140; read off a plot.

Usually Kd stands for the free concentration of one partner at which half of the binding sites on the other are occupied at equilibrium, for simple one-to-one binding.

For the substance Pol III alpha C-terminal peptide, the dissociation constant (Kd) in test [1] is 2 µM.
With “Octamer APIM peptide RWLVK (Ac-MDRWLVKW) MDRALVKW (mutated APIM; W to A at peptide position 4 of MDRWLVKW)”, the response in test [2] came out at 8 RU.
